14 molecules from patent US20100092467A1 (US Dept. of Health and Human Services, published 2010) can be followed below.

Ends that are not written are not given here. * marks the point of attachment. Biotin = O=C1N[C@H]2[C@H](CS[C@H]2CCCCC(=O)*)N1 Bounds are passed on as bounds.

Sequence of CD36, murine, endogenous on cells (mouse) (Q08857 whole entry): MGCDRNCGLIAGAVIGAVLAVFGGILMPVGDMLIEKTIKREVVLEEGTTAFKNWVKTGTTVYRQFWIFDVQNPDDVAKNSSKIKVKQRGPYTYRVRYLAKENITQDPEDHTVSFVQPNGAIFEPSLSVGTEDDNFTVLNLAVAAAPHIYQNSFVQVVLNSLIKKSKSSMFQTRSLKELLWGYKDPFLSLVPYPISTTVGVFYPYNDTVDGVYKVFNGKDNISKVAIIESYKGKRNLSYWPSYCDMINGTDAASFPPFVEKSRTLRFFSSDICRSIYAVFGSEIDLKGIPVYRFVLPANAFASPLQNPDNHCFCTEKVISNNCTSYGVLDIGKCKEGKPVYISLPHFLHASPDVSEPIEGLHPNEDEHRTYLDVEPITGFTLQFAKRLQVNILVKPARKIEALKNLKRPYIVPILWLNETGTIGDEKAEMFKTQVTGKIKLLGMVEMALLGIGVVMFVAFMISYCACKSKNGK

The target of the first experiment is CD47, human, endogenous on cells (human, UniProt Q08722 19-323). In words: cell-based or functional assay.
On to “E3CaG1, recombinant C-terminal regions of TSP1 (from UniProt P07996 646-1170) (ligand)”, for which the NO-driven HASMC adhesion to collagen was more than 0.4 nM. Consider AGWKDFTAYR [peptide 37416 (AGWKDFTAYR)], for which the “cGMP signaling IC50**” value was approximately 1000 nM. As to IGWADFTAYR [peptide 37413], the “cGMP signaling IC50**” value is more than 10000 nM. Still for that read-out and setting: in the case of IGWKNFTAYR [peptide 37297 (IGWKNFTAYR)] it was more than 10000 nM.

Turning to HIGWKDFTAYRWRLS [peptide C6b (HIGWKDFTAYRWRLS)], the “cGMP signaling IC50**” value was approximately 100 nM.

Take IGWKDYTAYR [peptide 37298 (IGWKDYTAYR)]: the “cGMP signaling IC50**” value was approximately 100 nM. With IGWKDFTAAR [peptide 37555 (IGWKDFTAAR)], the “cGMP signaling IC50**” value is approximately 10000 nM. For the molecule Biotin-IGWKDFTAYR [peptide C6d (biotin-IGWKDFTAYR)], the “cGMP signaling IC50**” value was approximately 100 nM.

As for IGWHDFTAYR [peptide 37414 (IGWHDFTAYR)], the “cGMP signaling IC50**” value is more than 10000 nM. Still for that read-out and setting: in the case of IGWKDFAAYR [peptide 37299] it was more than 10000 nM; in that of IGWKEFTAYR [peptide 37415 (IGWKEFTAYR)], 1000 nM.

As for Ac-WKDFTAYR [peptide 37300 (Ac-WKDFTAYR)], the “cGMP signaling IC50**” value is approximately 1000 nM. The same measure, in the same setting: with IGYKDFTAYR [peptide 37417 (IGYKDFTAYR)] the figure was approximately 100 nM.

The next experiment concerns the target CD36, murine, endogenous on cells (mouse) (UniProt Q08857). In words: cell-based or functional assay.
Molecule “Thrombospondin-1 (TSP1), prepared from human platelets (from UniProt P07996 19-1170) (ligand)” had an NO-stimulated adhesion of MASMC on type I collagen of 22 nM.
